Numbered stars: 1 amine (or outer) side, 2 acyl side, 3 side chain; on linkers, the order of the positions; unused ones are H or OH. Bridge positions count the residues as written; N and C are the ends. Square brackets hold non-standard residues; d marks the D form. Side chains are listed from the residue outwards. Peptide text beside a SMILES is read from it. * marks the point of attachment. C20 diacid = O=C(O)CCCCCCCCCCCCCCCCCCC(=O)*; C18 diacid = O=C(O)CCCCCCCCCCCCCCCCC(=O)*; C16 diacid = O=C(O)CCCCCCCCCCCCCCC(=O)*; γGlu = O=C(O)[C@H](CCC(=O)[*:2])N[*:1]; C14 diacid = O=C(O)CCCCCCCCCCCCC(=O)*; cisHyp = O=C(O)[C@@H]1C[C@H](O)CN1; Hyp = O=C(O)[C@@H]1C[C@@H](O)CN1
Columns and labels:
human amylin receptor = molecular target: T1, human amylin receptor (Homo sapiens, UniProt O60896+P30988); assay: Luciferase assay of amylin derivatives in amylin receptor/CRE-luc CHO cell line; type: cell-based; details: CHO-K1/Ga15/AMY3 CRE-luc cells, 24 hours incubation, F12 medium containing 10% FBS; read-out: EC50
T1 construct: host or cells: CHO-K1/Ga15/AMY3 cells, further stably transfected with a CRE-luciferase plasmid
T1 sequence (P30988 25-474): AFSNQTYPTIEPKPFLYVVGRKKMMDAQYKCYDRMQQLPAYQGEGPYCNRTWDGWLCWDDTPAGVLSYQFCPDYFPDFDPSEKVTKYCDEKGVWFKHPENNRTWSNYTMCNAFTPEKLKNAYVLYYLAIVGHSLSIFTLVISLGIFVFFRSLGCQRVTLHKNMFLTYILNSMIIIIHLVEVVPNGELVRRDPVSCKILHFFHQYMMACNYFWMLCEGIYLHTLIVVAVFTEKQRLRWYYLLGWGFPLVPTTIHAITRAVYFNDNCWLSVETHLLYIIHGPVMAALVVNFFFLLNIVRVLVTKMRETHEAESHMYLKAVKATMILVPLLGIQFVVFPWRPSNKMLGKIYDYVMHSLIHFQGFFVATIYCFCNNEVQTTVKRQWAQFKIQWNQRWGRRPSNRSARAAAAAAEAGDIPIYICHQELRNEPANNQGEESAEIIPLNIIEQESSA
T1 sequence (O60896 24-148 partner): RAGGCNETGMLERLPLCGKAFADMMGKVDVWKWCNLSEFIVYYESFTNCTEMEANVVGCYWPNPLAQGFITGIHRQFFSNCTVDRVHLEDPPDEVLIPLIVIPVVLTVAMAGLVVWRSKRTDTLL
Experimental: The experiment was intended to detect the activity or efficacy of the amylin derivatives on a human amylin receptor in vitro by luciferase assay.
50 μL of growth medium (F12 medium containing 10% FBS) was added into each well of a white 96-well plate, and the stably transfected amylin/CRE-lue CHO cells were inoculated into the white 96-well plate at a density of about 20,000 cells/well for activity determination.

[1] = Freeze-thaw stability of derivatives (freeze-thaw yield by liquid chromatography); type: physicochemical; details: for Dissolution property: appearance after dissolution at 0.2 mg/ml in 20 mM phosphate buffer solution (PB) (pH 7.0); for Freeze storage property: appearance after overnight storage at −20° C. and thawing to room temperature, 0.2 mg/ml in 20 mM PB (pH 7.0); for Freeze storage yield: concentration of polypeptide after freezing and thawing / concentration before, by liquid chromatography, −20° C. overnight
Experimental: The freeze-dried powder of the polypeptide analog derivative prepared in Example 1 was mixed with a buffer solution according to a mass-volume ratio of 0.2 mg/ml, the polypeptide was dissolved with 20 mM phosphate buffer solution (PB) (pH 7.0), the sample was stored at −20° C. for overnight storage, and then the sample was taken out to be restored to room temperature for thawing. During the experiment, property changes of the polypeptide after dissolution and freezing and thawing were observed and recorded respectively, and concentrations of the polypeptide before and after the freezing and thawing were detected by the following liquid chromatography method: Materials and equipment: high-performance liquid chromatographic instrument (Agilent 1200), ultrapure water (18.2 MΩ self-manufactured ultrapure water), acetonitrile (HPLC grade), and trifluoroacetic acid (HPLC grade); and reversed-phase chromatographic column: […] A sample to be tested was centrifuged at 10,000 rpm and 4° C. for 3 minutes, and a supernatant was taken and added into a liquid-phase sample injection bottle. […] A freeze-thaw yield was calculated by the following formula: freeze-thaw yield=concentration of polypeptide after the freezing and thawing/concentration of polypeptide before the freezing and thawing.

Row | Molecule | EC50 (human amylin receptor) [nM] | Dissolution property [1] | Freeze storage property [1] | Freeze storage yield [1] [%]
1 | PD150: KCNTATCATQRLADFLRHSSNNLKPILPPTNVGSNT-trans-Hyp-NH2; N-terminal, 1K-ϵ; γGlu + C14 diacid ({C14 diacid-γGlu}-K([γGlu-C14 diacid])CNTATCATQRLADFLRHSSNNLKPILPPTNVGSNT-{trans‑Hyp-NH2}; disulfide 2-7 (inferred)) |  | Clear | Clear | 103.74
2 | PD151: KCNTATCATQRLADFLRHSSNNLKPILPPTNVGSNT-trans-Hyp-NH2; N-terminal, 1K-ϵ; γGlu + C16 diacid ({C16 diacid-γGlu}-K([γGlu-C16 diacid])CNTATCATQRLADFLRHSSNNLKPILPPTNVGSNT-{trans‑Hyp-NH2}; disulfide 2-7 (inferred)) |  | Clear | Clear | 101.88
3 | PD152: KCNTATCATQRLADFLRHSSNNLKPILPPTNVGSNT-trans-Hyp-NH2; N-terminal, 1K-ϵ; γGlu + C18 diacid ({C18 diacid-γGlu}-K([γGlu-C18 diacid])CNTATCATQRLADFLRHSSNNLKPILPPTNVGSNT-{trans‑Hyp-NH2}; disulfide 2-7 (inferred)) |  | Clear | Clear | 97.96

More lines, main results first:

Row | EC50 (human amylin receptor) [nM] | Molecule | Dissolution property [1] | Freeze storage property [1] | Freeze storage yield [1] [%]
4 | 0.259 | CC[C@H](C)[C@H](NC(=O)[C@@H]1CCCN1C(=O)[C@H](CCCCNC(=O)CC[C@H](NC(=O)CCCCCCCCCCCCCCCCCCC(=O)O)C(=O)O)NC(=O)[C@H](CC(C)C)NC(=O)[C@H](CC(N)=O)NC(=O)[C@H](CC(N)=O)NC(=O)[C@H](CO)NC(=O)[C@H](CO)NC(=O)[C@H](Cc1c[nH]cn1)NC(=O)[C@H](CCCNC(=N)N)NC(=O)[C@H](CC(C)C)NC(=O)[C@H](Cc1ccccc1)NC(=O)[C@H](CCC(=O)O)NC(=O)[C@H](C)NC(=O)[C@H](CC(C)C)NC(=O)[C@H](CCCNC(=N)N)NC(=O)[C@H](CCC(N)=O)NC(=O)[C@@H](NC(=O)[C@H](C)NC(=O)[C@@H]1CSSC[C@H](NC(=O)[C@@H](N)CCCNC(=N)N)C(=O)N[C@@H](CC(N)=O)C(=O)N[C@@H]([C@@H](C)O)C(=O)N[C@@H](C)C(=O)N[C@@H]([C@@H](C)O)C(=O)N1)[C@@H](C)O)C(=O)N[C@@H](CC(C)C)C(=O)N1CCC[C@H]1C(=O)N1CCC[C@H]1C(=O)N[C@H](C(=O)N[C@@H](CC(N)=O)C(=O)N[C@H](C(=O)NCC(=O)N[C@@H](CO)C(=O)NCC(=O)N[C@H](C(=O)N1C[C@H](O)C[C@H]1C(N)=O)[C@@H](C)O)C(C)C)[C@@H](C)O [PD041] (H-RCNTATCATQRLAEFLRHSSNNLK([γGlu-C20 diacid])PILPPTNVGSGT[Hyp]-NH2; disulfide 2-7) |  |  | 
5 | 0.075 | CC[C@H](C)[C@H](NC(=O)[C@@H]1CCCN1C(=O)[C@H](CCCCNC(=O)CC[C@H](NC(=O)CCCCCCCCCCCCCCCCCCC(=O)O)C(=O)O)NC(=O)[C@H](CC(C)C)NC(=O)[C@H](CC(N)=O)NC(=O)[C@H](CC(N)=O)NC(=O)[C@H](CO)NC(=O)[C@H](CO)NC(=O)[C@H](Cc1c[nH]cn1)NC(=O)[C@H](CCCNC(=N)N)NC(=O)[C@H](CC(C)C)NC(=O)[C@H](Cc1ccccc1)NC(=O)[C@H](CCC(=O)O)NC(=O)[C@H](C)NC(=O)[C@H](CC(C)C)NC(=O)[C@H](CCCNC(=N)N)NC(=O)[C@H](CCC(N)=O)NC(=O)[C@@H](NC(=O)[C@H](C)NC(=O)[C@@H]1CSSC[C@H](N)C(=O)N[C@@H](CC(N)=O)C(=O)N[C@@H]([C@@H](C)O)C(=O)N[C@@H](C)C(=O)N[C@@H]([C@@H](C)O)C(=O)N1)[C@@H](C)O)C(=O)N[C@@H](CC(C)C)C(=O)N1CCC[C@H]1C(=O)N1CCC[C@H]1C(=O)N[C@H](C(=O)N[C@@H](CC(N)=O)C(=O)N[C@H](C(=O)NCC(=O)N[C@@H](CO)C(=O)N[C@@H](CC(N)=O)C(=O)N[C@H](C(=O)N1C[C@H](O)C[C@H]1C(N)=O)[C@@H](C)O)C(C)C)[C@@H](C)O [PD053] (H-CNTATCATQRLAEFLRHSSNNLK([γGlu-C20 diacid])PILPPTNVGSNT[Hyp]-NH2; disulfide 1-6) |  |  | 
6 | 0.049 | CC[C@H](C)[C@H](NC(=O)[C@@H]1CCCN1C(=O)[C@H](CCCCNC(=O)CC[C@H](NC(=O)CCCCCCCCCCCCCCCCCCC(=O)O)C(=O)O)NC(=O)[C@H](CC(C)C)NC(=O)[C@H](CC(N)=O)NC(=O)[C@H](CC(N)=O)NC(=O)[C@H](CO)NC(=O)[C@H](CO)NC(=O)[C@H](Cc1c[nH]cn1)NC(=O)[C@H](CCCNC(=N)N)NC(=O)[C@H](CC(C)C)NC(=O)[C@H](Cc1ccccc1)NC(=O)[C@H](CC(=O)O)NC(=O)[C@H](C)NC(=O)[C@H](CC(C)C)NC(=O)[C@H](CCCNC(=N)N)NC(=O)[C@H](CCC(N)=O)NC(=O)[C@@H](NC(=O)[C@H](C)NC(=O)[C@@H]1CSSC[C@H](N)C(=O)N[C@@H](CC(N)=O)C(=O)N[C@@H]([C@@H](C)O)C(=O)N[C@@H](C)C(=O)N[C@@H]([C@@H](C)O)C(=O)N1)[C@@H](C)O)C(=O)N[C@@H](CC(C)C)C(=O)N1CCC[C@H]1C(=O)N1CCC[C@H]1C(=O)N[C@H](C(=O)N[C@@H](CC(N)=O)C(=O)N[C@H](C(=O)NCC(=O)N[C@@H](CO)C(=O)N[C@@H](CC(N)=O)C(=O)N[C@H](C(=O)N1C[C@H](O)C[C@H]1C(N)=O)[C@@H](C)O)C(C)C)[C@@H](C)O [PD054] (H-CNTATCATQRLADFLRHSSNNLK([γGlu-C20 diacid])PILPPTNVGSNT[Hyp]-NH2; disulfide 1-6) |  |  | 
7 | 0.909 | CC[C@H](C)[C@H](NC(=O)[C@@H]1CCCN1C(=O)[C@H](CCCCNC(=O)CC[C@H](NC(=O)CCCCCCCCCCCCCCCCCCC(=O)O)C(=O)O)NC(=O)[C@H](CC(C)C)NC(=O)[C@H](CC(N)=O)NC(=O)[C@H](CC(N)=O)NC(=O)[C@H](CO)NC(=O)[C@H](CO)NC(=O)[C@H](Cc1c[nH]cn1)NC(=O)[C@H](CCCNC(=N)N)NC(=O)[C@H](CC(C)C)NC(=O)[C@H](Cc1ccccc1)NC(=O)[C@H](CCC(=O)O)NC(=O)[C@H](C)NC(=O)[C@H](CC(C)C)NC(=O)[C@H](CCCNC(=N)N)NC(=O)[C@H](CCC(N)=O)NC(=O)[C@@H](NC(=O)[C@H](C)NC(=O)[C@@H]1CSSC[C@H](NC(=O)[C@@H](N)CCCNC(=N)N)C(=O)N[C@@H](CC(N)=O)C(=O)N[C@@H]([C@@H](C)O)C(=O)N[C@@H](C)C(=O)N[C@@H]([C@@H](C)O)C(=O)N1)[C@@H](C)O)C(=O)N[C@@H](CC(C)C)C(=O)N1CCC[C@H]1C(=O)N1CCC[C@H]1C(=O)N[C@H](C(=O)N[C@@H](CC(N)=O)C(=O)N[C@H](C(=O)NCC(=O)N[C@@H](CO)C(=O)N[C@@H](CC(N)=O)C(=O)N[C@H](C(=O)N1C[C@@H](O)C[C@H]1C(N)=O)[C@@H](C)O)C(C)C)[C@@H](C)O [PD055] (H-RCNTATCATQRLAEFLRHSSNNLK([γGlu-C20 diacid])PILPPTNVGSNT[cisHyp]-NH2; disulfide 2-7) |  |  | 
8 | 0.586 | CC[C@H](C)[C@H](NC(=O)[C@@H]1CCCN1C(=O)[C@H](CCCCNC(=O)CC[C@H](NC(=O)CCCCCCCCCCCCCCCCCCC(=O)O)C(=O)O)NC(=O)[C@H](CC(C)C)NC(=O)[C@H](CC(N)=O)NC(=O)[C@H](CC(N)=O)NC(=O)[C@H](CO)NC(=O)[C@H](CO)NC(=O)[C@H](Cc1c[nH]cn1)NC(=O)[C@H](CCCNC(=N)N)NC(=O)[C@H](CC(C)C)NC(=O)[C@H](Cc1ccccc1)NC(=O)[C@H](CC(=O)O)NC(=O)[C@H](C)NC(=O)[C@H](CC(C)C)NC(=O)[C@H](CCCNC(=N)N)NC(=O)[C@H](CCC(N)=O)NC(=O)[C@@H](NC(=O)[C@H](C)NC(=O)[C@@H]1CSSC[C@H](NC(=O)[C@@H](N)CCCNC(=N)N)C(=O)N[C@@H](CC(N)=O)C(=O)N[C@@H]([C@@H](C)O)C(=O)N[C@@H](C)C(=O)N[C@@H]([C@@H](C)O)C(=O)N1)[C@@H](C)O)C(=O)N[C@@H](CC(C)C)C(=O)N1CCC[C@H]1C(=O)N1CCC[C@H]1C(=O)N[C@H](C(=O)N[C@@H](CC(N)=O)C(=O)N[C@H](C(=O)NCC(=O)N[C@@H](CO)C(=O)N[C@@H](CC(N)=O)C(=O)N[C@H](C(=O)N1C[C@@H](O)C[C@H]1C(N)=O)[C@@H](C)O)C(C)C)[C@@H](C)O [PD056] (H-RCNTATCATQRLADFLRHSSNNLK([γGlu-C20 diacid])PILPPTNVGSNT[cisHyp]-NH2; disulfide 2-7) |  |  | 
